Results as given in patent US20080292620A1 (Novartis, published 2008).

Experiments:
[1] = target: T1, recombinant extracellular domain (ECD) of the human prolactin receptor (PRLR) (human, UniProt P16471 25-234); assay: Biacore 2000 SPR, antibody captured, PRLR ECD injected
T1 construct: also called PRLR ECD; Human PRLR; not shown: His tag
T1 sequence: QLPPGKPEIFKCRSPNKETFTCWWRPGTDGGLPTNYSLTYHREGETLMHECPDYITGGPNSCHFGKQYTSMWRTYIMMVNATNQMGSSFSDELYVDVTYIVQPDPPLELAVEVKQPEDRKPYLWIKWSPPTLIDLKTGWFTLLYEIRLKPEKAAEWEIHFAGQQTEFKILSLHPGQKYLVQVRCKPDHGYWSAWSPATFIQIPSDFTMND

[2] = target: T1, recombinant extracellular domain (ECD) …; assay: Biacore 2000 SPR, antibody captured on Protein A/G, PRLR ECD titrated, 1:1 Langmuir, 25 C
[3] = target: T2, cynomolgus PRLR ECD (cynomolgus, UniProt A0A2K5WXK1 25-234); assay: Biacore SPR, antibody captured on Protein A/G, kinetic titration of PRLR ECD, 1:1 Langmuir
T2 construct: extracellular domain; also called Cyno PRLR
T2 sequence: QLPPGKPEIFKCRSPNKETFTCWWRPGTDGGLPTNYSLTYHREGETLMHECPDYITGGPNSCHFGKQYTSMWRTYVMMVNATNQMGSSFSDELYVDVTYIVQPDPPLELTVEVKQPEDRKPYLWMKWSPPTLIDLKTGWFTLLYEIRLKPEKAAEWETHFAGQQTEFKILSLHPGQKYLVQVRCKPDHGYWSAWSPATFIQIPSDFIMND
Description: (§1) Affinity of the chimerized and Human Engineered™ antibodies determined by Biacore analysis. Briefly, a CM5 sensor chip (Biacore) immobilized with Protein A/G (Pierce) via NHS/EDC was used to capture approximately 600 RU of antibody on the chip surface. Five concentrations of PRLR ECD beginning at 5 ug/mL (185 nM) and serially diluted at 5× dilution to 0.3 nM were injected from lowest to highest concentration in the kinetic titration injection mode, and 15 minutes of dissociation data was collected. The experiments were double-referenced, i.e. an adjacent flow cell response was subtracted automatically, and the response from a buffer injection experiment was subtracted from the experimental data set. Kinetic and derived parameters (kₐ, kd and KD) were determined by fitting to a 1:1 Langmuir model using BiaEval software customized to the kinetic titration injection mode. Affinity measurements of both chimeric and all Human Engineered™ antibodies against human and cynomolgus PRLR ECD are summarized in Table 9 and Table 10.

[4] = target: T1, recombinant extracellular domain (ECD) …; assay: as above
Description: as §1

[5] = target: T2, cynomolgus PRLR ECD; assay: Biacore SPR, antibody covalently immobilized on CM4 chip, PRLR ECD 111 to 1.37 nM
[6] = target: T1, recombinant extracellular domain (ECD) …; assay: as above
[7] = target: T3, rat PRLR ECD (rat, UniProt P05710 20-229); assay: as above
T3 construct: extracellular domain
T3 sequence (looked up): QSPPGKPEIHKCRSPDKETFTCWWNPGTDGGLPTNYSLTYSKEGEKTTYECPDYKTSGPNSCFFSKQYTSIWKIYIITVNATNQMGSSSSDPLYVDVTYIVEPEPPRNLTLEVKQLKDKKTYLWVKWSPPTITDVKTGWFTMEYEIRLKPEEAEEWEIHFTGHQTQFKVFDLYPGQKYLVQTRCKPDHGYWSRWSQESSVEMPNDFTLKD

[8] = target: T4, murine PRLR ECD (mouse, UniProt Q08501 20-229); assay: as above
T4 construct: extracellular domain; also called Mouse PRLR
T4 sequence (looked up): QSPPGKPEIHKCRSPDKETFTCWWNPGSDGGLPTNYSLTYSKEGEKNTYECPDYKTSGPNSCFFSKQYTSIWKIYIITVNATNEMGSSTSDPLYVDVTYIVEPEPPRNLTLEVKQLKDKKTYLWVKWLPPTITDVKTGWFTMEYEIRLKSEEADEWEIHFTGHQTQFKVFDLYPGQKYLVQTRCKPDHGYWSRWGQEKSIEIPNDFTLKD

B1: XPA.06.158 (Fc fusion)
chain 1: EVQLLESGGGLVQPGGSLRLSCAASGFTFSSYGMHWVRQAPGKGLEWVSLISWDGYRTHYADSVKGRFTISRDNSKNTLYLQMNSLRAEDTAMYYCTTGASYHALWGQGTLVTV
chain 2: QSVLTQPPSASGTPGQRVTISCSGSRSNIGNNYVSWYQQLPGTAPKLLIYDDIKRPSGVPDRFSGSKSGTSASLAISGLRSEDEADYYCATWDDSLNGPVFGGGTKLTVL
- Kd [1]: 0.7 nM
- Kd [2]: 0.7 nM
- koff [2]: 7.3e-05 s⁻¹
- kon [2]: 110000 M⁻¹ s⁻¹

B2: he.06.275-1 (antibody, V domains shown)
VH: DVQLQESGPGLVKPSQTLSLTCTVTGYSITSDYAWNWIRQFPGKKLEWMGYISYSGSTSYNPSLKSRITISRDTSKNQFSLQLNSVTAADTATYFCARDYGYVFDYWGQGTTLTVSS
VL: DVQITQSPSSLSASPGDRITLTCRASKNIYKYLAWYQEKPGKTNNLLIYSGSTLHSGIPSRFSGSGSGTDFTLTISSLQPEDFAMYYCQQHNDYPYTFGQGTKLEIK
notes: Human Engineered
- Kd [3]: 1.6 nM
- Kd [4]: 0.5 nM

B3: he.06.275-2 (antibody, V domains shown)
VH: QVQLQESGPGLVKPSQTLSLTCTVSGYSITSDYAWNWIRQFPGKGLEWMGYISYSGSTSYNPSLKSRITISRDTSKNQFSLQLNSVTAADTAVYFCARDYGYVFDYWGQGTTLTVSS
VL: DVQITQSPSSLSASPGDRITLTCRASKNIYKYLAWYQEKPGKTNNLLIYSGSTLHSGIPSRFSGSGSGTDFTLTISSLQPEDFAMYYCQQHNDYPYTFGQGTKLEIK
notes: Human Engineered
- Kd [3]: 1.9 nM
- Kd [4]: 0.61 nM

B4: he.06.275-3 (antibody, V domains shown)
VH: DVQLQESGPGLVKPSQTLSLTCTVTGYSITSDYAWNWIRQFPGKKLEWMGYISYSGSTSYNPSLKSRITISRDTSKNQFSLQLNSVTAADTATYFCARDYGYVFDYWGQGTTLTVSS
VL: DVQITQSPSSLSASPGDRITLTCRASKNIYKYLAWYQEKPGKANKLLIYSGSTLHSGIPSRFSGSGSGTDFTLTISSLQPEDFAMYYCQQHNDYPYTFGQGTKLEIK
notes: Human Engineered
- Kd [3]: 1.3 nM
- Kd [4]: 0.43 nM

B5: he.06.642-1 (antibody, V domains shown)
VH: EVQLVESGGGLVQPGGSLRLSCAVSGFTFSSYGMSWVRQAPGKRLEWVATVSSGGTYTYYPDSVKGRFTISRDNSKNTLYLQMNSLRAEDTAMYYCARHRGNYYATYYYAMDYWGQGTLVTVSS
VL: DIVLTQSPDSLAVSLGERATINCKASKSVSTSGYTYMHWYQQKPGQPPKLLIYLASNRESGVPDRFSGSGSGTDFTLTISPVQAEDVATYYCQHSGELPPSFGQGTKLEIK
notes: Human Engineered
- Kd [3]: 31 nM
- Kd [4]: 2 nM

B6: he.06.642-2 (antibody, V domains shown)
VH: EVQLVESGGGLVQPGGSLRLSCAVSGFTFSSYGMSWVRQAPGKGLEWVATVSSGGTYTYYPDSVKGRFTISRDNSKNTLYLQMNSLRAEDTAVYYCARHRGNYYATYYYAMDYWGQGTLVTVSS
VL: DIVLTQSPDSLAVSLGERATINCKASKSVSTSGYTYMHWYQQKPGQPPKLLIYLASNRESGVPDRFSGSGSGTDFTLTISPVQAEDVATYYCQHSGELPPSFGQGTKLEIK
notes: Human Engineered
- Kd [5]: 38.9 nM
- Kd [6]: 2.6 nM
- Kd [7]: 1.9 nM
- Kd [8]: 2.7 nM
- Kd [3]: 47 nM
- Kd [4]: 3.1 nM

B7: XPA.06.167 (Fc fusion)
chain 1: EVQLLESGGGLVQPGGSLRLSCAASGFTFGSYGMHWVRQAPGKGLEWVSLISWDGGSTYYADSVKGRFTISRDNSKNTLYLQMNSLRAEDTAVYYCASSISAAATGLDYWGQGTLVTV
chain 2: not shown
- Kd [1]: 4 nM

B8: XPA.06.178 (Fc fusion)
chain 1: EVQLLESGGGLVQPGGSLRLSCAASGFTFDDYGMSWVRQVPGKGLEWVSLISWDGGSTYYADSVKGRFTISRDNSKNTLYLQMNSLRAEDTAVYYCARPSGAYPTPFDNWGQGTLVTV
chain 2: not shown
- Kd [1]: 20 nM

B9: XPA.06.131 (Fc fusion)
chain 1: EVQLLESGGGLVQPGGSLRLSCAASGFTFNSYPVHWVRQAPGKGLEWVAVISYDGNTKYYADSVKGRFTISRDNSKNTLYLQMNSLRAEDTAVYYCARDNPPFDYWGQGTLATV
chain 2: QSVLTQPPSASGTPGQRVTISCSGSSSNIGNNYVSWYQQLPGTAPKLLIYDNNNRPSGVPDRFSGSKSGTSASLAISGLRSEDEADYYCEAWDDTLNGPHVVFGGGTKLTVL
- Kd [2]: 2.1 nM
- koff [2]: 7.3e-05 s⁻¹
- kon [2]: 34000 M⁻¹ s⁻¹

B10: XPA.06.145 (Fc fusion)
chain 1: EVQLLESGGGLVQPGGSLRLSCAASGFTFSNYGMHWVRQAPGKGLEWVSLISWDGGRTSYTDSVKGRFTISRDNSKNTLYLQMNSLRAEDTAVYYCARGLIGDNWGQGTLVTVSS
chain 2: QSVLTQPPSASGTPGQRVTISCTGSSSNIGAGYDVHWYQQLPGTAPKLLIYDNNKRPSGVPDRFSGSKSGTSASLAISGLRSEDEADYYCAAWDDSLNGWVFGGGTKLTVL
- Kd [1]: 10 nM

B11: XPA.06.141 (Fc fusion)
chain 1: EVQLLESGGGLVQPGGSLRLSCAASGFTFSNSGMHWVRQAPGKGLEWVAAISYDGSNKYYADSVKGRFTISRDNSKNTLYLQMNSLRAEDTAVYYCARADSSGTVDYWGQGTLVTV
chain 2: not shown
- Kd [2]: 8.4 nM
- koff [2]: 0.00053 s⁻¹
- kon [2]: 63000 M⁻¹ s⁻¹

B12: XPA.06.147 (Fc fusion)
chain 1: EVQLLESGGGLVQPGGSLRLSCAASGFTFSSYGMHWVRQAPGKGLEWVSAIGGRGVSTYYADSVKGRFTISRDNSKNTLYLQMNSLRAEDTAVYYCARGSNWTHALGFDPWGQGTLVTV
chain 2: not shown
- Kd [2]: 9.8 nM
- koff [2]: 0.0053 s⁻¹
- kon [2]: 550000 M⁻¹ s⁻¹

B13: XPA.06.217 (Fc fusion)
chain 1: EVQLLESGGGLVQPGGSLRLSCAASGFTFSSYAMHWVRQAPGKGLEWVSSISSSSSSIYYADSVKGRFTISRDNSKNTLYLQMNSLRAEDTAVYYCARGGGQQLGAFDIWGQGTLVTV
chain 2: not shown
- Kd [1]: 7 nM
